Laboratory results as given in US20230093265A1 (PROSMEDIC SWEDEN, published 2023).

B1: human synthetic scFv fragment 1 (scFv)
scFv: EVQLLESGGGLVQPGGSLRLSCAASGFTFSSYAMSWVRQAPGKGLEWVSAISGSGGSTYYASVKGRFTISRDNSKNTLYLQMNSLRAEDTAVYYCARHYYNWASGYFDYWGQGTLVTVSSGGGGSGGGGSGGGGSDIQMTQSPSSLSASVGDRVTITCRASQSISSYLNWYQQKPGKAPKLLIYAASSLQSGVPSRFSGSGSGTDFTLTISSLQPEDFATYYCQQGWYPPTFGQGTKLEIKR
notes: also called scFv 1
B2: human synthetic scFv fragment 10 (scFv)
scFv: EVQLLESGGGLVQPGGSLRLSCAASGFTFSSYAMSWVRQAPGKGLEWVSAISGSGGSTYYASVKGRFTISRDNSKNTLYLQMNSLRAEDTAVYYCARYSYYYTWLDYWGQGTLVTVSSGGGGSGGGGSGGGGSDIQMTQSPSSLSASVGDRVTITCRASQSISSYLNWYQQKPGKAPKLLIYAASSLQSGVPSRFSGSGSGTDFTLTISSLQPEDFATYYCQQFYPSLHTFGQGTKLEIKR
notes: also called scFv 10
B3: human synthetic scFv fragment 5 (scFv)
scFv: EVQLLESGGGLVQPGGSLRLSCAASGFTFSSYAMSWVRQAPGKGLEWVSAISGSGGSTYYASVKGRFTISRDNSKNTLYLQMNSLRAEDTAVYYCARSYSWYSRGPSLDYWGQGTLVTVSSGGGGSGGGGSGGGGSDIQMTQSPSSLSASVGDRVTITCRASQSISSYLNWYQQKPGKAPKLLIYAASSLQSGVPSRFSGSGSGTDFTLTISSLQPEDFATYYCQQAFYAHLLTFGQGTKLEIKR
notes: also called scFv 5
B4: human synthetic scFv fragment 3 (scFv)
scFv: EVQLLESGGGLVQPGGSLRLSCAASGFTFSSYAMSWVRQAPGKGLEWVSAISGSGGSTYYASVKGRFTISRDNSKNTLYLQMNSLRAEDTAVYYCARVYYHYYYYGSFDYWGQGTLVTVSSGGGGSGGGGSGGGGSDIQMTQSPSSLSASVGDRVTITCRASQSISSYLNWYQQKPGKAPKLLIYAASSLQSGVPSRFSGSGSGTDFTLTISSLQPEDFATYYCQQSTHLSTFGQGTKLEIKR
notes: also called scFv 3
B5: human synthetic scFv fragment 9 (scFv)
scFv: EVQLLESGGGLVQPGGSLRLSCAASGFTFSSYAMSWVRQAPGKGLEWVSAISGSGGSTYYASVKGRFTISRDNSKNTLYLQMNSLRAEDTAVYYCARSHYGSLDYWGQGTLVTVSSGGGGSGGGGSGGGGSDIQMTQSPSSLSASVGDRVTITCRASQSISSYLNWYQQKPGKAPKLLIYAASSLQSGVPSRFSGSGSGTDFTLTISSLQPEDFATYYCQQFSYTLSTFGQGTKLEIKR
notes: also called scFv 9
B6: human synthetic scFv fragment 7 (scFv)
scFv: EVQLLESGGGLVQPGGSLRLSCAASGFTFSSYAMSWVRQAPGKGLEWVSAISGSGGSTYYASVKGRFTISRDNSKNTLYLQMNSLRAEDTAVYYCARYTHSTYGYRLDYWGQGTLVTVSSGGGGSGGGGSGGGGSDIQMTQSPSSLSASVGDRVTITCRASQSISSYLNWYQQKPGKAPKLLIYAASSLQSGVPSRFSGSGSGTDFTLTISSLQPEDFATYYCQQDAYHPPTFGQGTKLEIKR
notes: also called scFv 7; AK7
B7: human synthetic scFv fragment 11 (scFv)
scFv: EVQLLESGGGLVQPGGSLRLSCAASGFTFSSYAMSWVRQAPGKGLEWVSAISGSGGSTYYASVKGRFTISRDNSKNTLYLQMNSLRAEDTAVYYCARYTYYVGGFDYWGQGTLVTVSSGGGGSGGGGSGGGGSDIQMTQSPSSLSASVGDRVTITCRASQSISSYLNWYQQKPGKAPKLLIYAASSLQSGVPSRFSGSGSGTDFTLTISSLQPEDFATYYCQQGFVLSTFGQGTKLEIKR
notes: also called scFv 11
B8: human synthetic scFv fragment 6 (scFv)
scFv: EVQLLESGGGLVQPGGSLRLSCAASGFTFSSYAMSWVRQAPGKGLEWVSAISGSGGSTYYASVKGRFTISRDNSKNTLYLQMNSLRAEDTAVYYCARYVRGYGYGYLDYWGQGTLVTVSSGGGGSGGGGSGGGGSDIQMTQSPSSLSASVGDRVTITCRASQSISSYLNWYQQKPGKAPKLLIYAASSLQSGVPSRFSGSGSGTDFTLTISSLQPEDFATYYCQQAPAYSPFTFGQGTKLEIKR
notes: also called scFv 6
B9: human synthetic scFv fragment 12 (scFv)
scFv: EVQLLESGGGLVQPGGSLRLSCAASGFTFSSYAMSWVRQAPGKGLEWVSAISGSGGSTYYASVKGRFTISRDNSKNTLYLQMNSLRAEDTAVYYCARTYYYFYPYGYYFDYWGQGTLVTVSSGGGGSGGGGSGGGGSDIQMTQSPSSLSASVGDRVTITCRASQSISSYLNWYQQKPGKAPKLLIYAASSLQSGVPSRFSGSGSGTDFTLTISSLQPEDFATYYCQQGFYLPTFGQGTKLEIKR
notes: also called scFv 12
B10: human synthetic scFv fragment 2 (scFv)
scFv: EVQLLESGGGLVQPGGSLRLSCAASGFTFSSYAMSWVRQAPGKGLEWVSAISGSGGSTYYASVKGRFTISRDNSKNTLYLQMNSLRAEDTAVYYCARTTSYYGYSAHFIDYWGQGTLVTVSSGGGGSGGGGSGGGGSDIQMTQSPSSLSASVGDRVTITCRASQSISSYLNWYQQKPGKAPKLLIYAASSLQSGVPSRFSGSGSGTDFTLTISSLQPEDFATYYCQQGYGPFTFGQGTKLEIKR
notes: also called scFv 2
B11: human synthetic scFv fragment 8 (scFv)
scFv: EVQLLESGGGLVQPGGSLRLSCAASGFTFSSYAMSWVRQAPGKGLEWVSAISGSGGSTYYASVKGRFTISRDNSKNTLYLQMNSLRAEDTAVYYCARVFYYGPYYFSYHFDYWGQGTLVTVSSGGGGSGGGGSGGGGSDIQMTQSPSSLSASVGDRVTITCRASQSISSYLNWYQQKPGKAPKLLIYAASSLQSGVPSRFSGSGSGTDFTLTISSLQPEDFATYYCQQDDRGLPTFGQGTKLEIKR
notes: also called scFv 8

Target: T1, purified prostasomes (from human seminal plasma) (human)
T1 construct: Not a single protein: exosome-type vesicle purified from seminal plasma
Assay: direct ELISA, coated purified prostasomes, biotinylated scFv at 4 µg/mL, streptavidin-HRP
Method: The wells were washed three times with PBS containing 0.05% Tween 20. Addition of biotinylated human synthetic scFv fragments 1:250 in row A were made and then 1:5 dilutions downwards. The plates were then incubated for 2 h at room temperature and then washed three times with PBS containing 0.05% Tween 20. 100 μL Streptavidine-HRP was added to the wells and incubated for 2 h at room temperature. The wells were washed three times with PBS containing 0.05% Tween 20. 100 μL TMB (tetramethylbenzidine) substrate was added to the wells, and incubated for 20 min and 25 μL 1 M H2SO4 was added to the plate. The plate was read at 450 nm.
Seminal plasma was collected from the Reproduction Centre at Akademiska Hospital (Uppsala, Sweden) following previously described routines (Ronquist, G. K., et al., Prostasomal DNA characterization and transfer into human sperm. Mol Reprod Dev, 2011. 78 (7): p. 467-76). The seminal plasma was thawed and centrifuged at 3,000 g for 12 min. The supernatants were collected and centrifuged at 10,000 g for 30 min. The supernatants were then transferred to new tubes and ultra-centrifuged using a 90Ti rotor (Beckman Coulter, Brea, Calif., USA) at 100,000 g for 2 h. The pellets were resuspended in 0.02 M NaH2PO4, 0.15 M NaCl, pH 7.2 (PBS), overnight at 4° C. The resuspended pellets were then loaded on a chromatography column (XK 60/70, GE Healthcare, Uppsala, Sweden) packed with Superdex 200 gel. Fractions were collected at a flow rate of 5 mL/h. The fractions were then measured with a spectrophotometer where peaks at both 260 nm (nucleic acid) and 280 nm (proteins) corresponds to prostasomes. These fractions were collected and pooled and ultra-centrifuged at 100,000 g. The obtained pellet was resuspended in PBS. The purified prostasomes (1 mg/ml were diluted 1:250 in PBS and 100 μL were added per well in a F96 Polysorb NUNC Immunoplate (Thermo Fisher Scientific, Uppsala, Sweden). The plates were incubated for 2 h at ambient temperature and then washed three times with PBS containing 0.05% Tween 20 (P1379, Sigma-Aldrich). 120 μL 1% bovine serum albumin (BSA, Sigma-Aldrich) in PBS were added to the wells and the plate was incubated over night at ambient temperature. The plate was washed three times with PBS containing 0.05% Tween 20. 100 μL of the biotinylated monoclonal antibodies were added in dilution of 4 μg/mL in PBS to the wells.

Question: How did the Absorbance turn out when B1 was run?
Answer: 0.643 absorbance at 450 nm

Question: Which Absorbance does the source give for B2 here?
Answer: 1.64 absorbance at 450 nm

Question: B3 was tested. Which Absorbance did it give?
Answer: 0.617 absorbance at 450 nm

Question: B4 was tested. Which Absorbance did it give?
Answer: 0.903 absorbance at 450 nm

Question: Which Absorbance does the source give for B5 here?
Answer: 1.29 absorbance at 450 nm

Question: B6 was tested. Which Absorbance did it give?
Answer: 1.36 absorbance at 450 nm

Question: Which Absorbance does the source give for B7 here?
Answer: 0.066 absorbance at 450 nm

Question: Which Absorbance does the source give for B8 here?
Answer: 0.556 absorbance at 450 nm

Question: With B9 as the binder, how does the Absorbance read?
Answer: 0.954 absorbance at 450 nm

Question: For B10, which Absorbance is on record?
Answer: 0.394 absorbance at 450 nm

Question: For B11, which Absorbance is on record?
Answer: 0.653 absorbance at 450 nm
